Measured values reported in patent US20130315910A1 (Xencor, published 2013).

T1: cynoFcγRIIb (Macaca fascicularis, UniProt A0A140HDP4)
T1 construct: extracellular region, C-terminal His- and GST-tag; also called cynomolgus monkey FcγRIIb
T1 sequence (receptor extracellular region): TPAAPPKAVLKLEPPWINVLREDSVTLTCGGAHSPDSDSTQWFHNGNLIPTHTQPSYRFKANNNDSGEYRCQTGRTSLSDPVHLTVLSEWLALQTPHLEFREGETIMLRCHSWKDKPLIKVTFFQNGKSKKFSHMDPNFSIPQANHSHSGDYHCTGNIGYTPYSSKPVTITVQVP

T2: mFcγRIIb (Mus musculus, UniProt P08101)
T2 construct: extracellular region, C-terminal His- and GST-tag; also called mouse FcγRII
T2 sequence (receptor extracellular region, looked up): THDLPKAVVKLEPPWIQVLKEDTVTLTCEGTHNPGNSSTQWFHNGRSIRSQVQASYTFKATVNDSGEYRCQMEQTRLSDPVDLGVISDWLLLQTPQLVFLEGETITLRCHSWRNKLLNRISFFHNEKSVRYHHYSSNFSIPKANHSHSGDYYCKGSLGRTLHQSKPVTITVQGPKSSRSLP

T3: human FcγRIIb receptor protein (R&D Systems) (human, UniProt P31994 46-217)
T3 construct: Bought protein injected over captured antibody in Biacore; also called CD32b
T3 sequence (looked up): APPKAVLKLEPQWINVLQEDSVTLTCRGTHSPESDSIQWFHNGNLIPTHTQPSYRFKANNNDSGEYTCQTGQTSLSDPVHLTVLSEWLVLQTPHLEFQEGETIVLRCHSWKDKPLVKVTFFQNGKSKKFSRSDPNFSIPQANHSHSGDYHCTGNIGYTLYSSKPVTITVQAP

T4: human FcγRIIa (131R), His- and GST-tagged (human, UniProt P12318 34-217)
T4 construct: Expressed in HEK293T cells, purified by nickel chromatography; also called R131 FcγRIIa; not shown: 6xHis and GST tags of the pTT5 vector
T4 sequence (looked up): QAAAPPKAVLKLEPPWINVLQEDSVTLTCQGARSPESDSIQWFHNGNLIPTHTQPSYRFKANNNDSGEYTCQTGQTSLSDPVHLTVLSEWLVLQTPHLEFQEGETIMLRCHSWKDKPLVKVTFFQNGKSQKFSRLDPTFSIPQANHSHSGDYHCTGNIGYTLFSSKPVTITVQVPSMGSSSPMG


What was measured:
cynoFcγRIIb = biological target: T1, cynoFcγRIIb; experiment: SPR, Kd
Experimental: (§1) Variants were screened for receptor affinity using Biacore™ technology, also referred to as Biacore herein, a surface plasmon resonance (SPR) based technology for studying biomolecular interactions in real time. SPR measurements were performed using a Biacore 3000 instrument (Biacore, Piscataway, N.J.). A protein A/G (Pierce Biotechnology) CM5 biosensor chip (Biacore) was generated using a standard primary amine coupling protocol. All measurements were performed using HBS-EP buffer (10 mM HEPES pH 7.4, 0.15 M NaCl, 3 mM EDTA, 0.005% vol/vol surfactant P20, Biacore). Antibodies at 20 nM or 50 nM in HBS-EP buffer were immobilized on the protein A/G surface and FcγRs were injected. After each cycle, the surface was regenerated by injecting glycine buffer (10 mM, pH 1.5). Data were processed by zeroing time and response before the injection of FcγR and by subtracting appropriate nonspecific signals (response of reference channel and injection of running buffer). Kinetic analyses were performed by global fitting of binding data with a 1:1 Langmuir binding model using BIAevaluation software (Biacore).
(§2) Variant antibodies were tested for their affinity to mouse or cynologous monkey FcγRs using Biacore SPR as described above. Specifically, antibodies were first immobilized on a protein A/G chip to high density, and then followed by injections of the extracellular domain of the mouse or cynologous monkey FcγR of interest. Both association and dissociation phases were tracked in real time using the Biacore technology.

mFcγRIIb = biological target: T2, mFcγRIIb; experiment: SPR, Kd
Experimental: as §1, §2

[1] = biological target: T3, human FcγRIIb receptor protein (R&D …); experiment: SPR
[2] = biological target: T4, human FcγRIIa (131R), His- and …; experiment: SPR

binding result (cynoFcγRIIb) | binding result (mFcγRIIb) | Fold vs WT IgG1 [1] | Kd [1] | Fold vs WT IgG1 [2] | Kd [2] | Binder
no binding | no binding | 5.11 fold | 287 nM | 0.728 fold | 1180 nM | L234D/G236N/S267E (antibody, human IgG1, kappa, HuAM4G7 anti-CD19 IgG1 (m1) with these Fc substitutions, EU index; copies: 2 + 2) heavy: EVQLVESGGGLVKPGGSLKLSCAASGYTFTSYVMHWVRQAPGKGLEWIGYINPYNDGTKYNEKFQGRVTISSDKSISTAYMELSSLRSEDTAMYYCARGTYYYGTRVFDYWGQGTLVTVSSASTKGPSVFPLAPSSKSTSGGTAALGCLVKDYFPEPVTVSWNSGALTSGVHTFPAVLQSSGLYSLSSVVTVPSSSLGTQTYICNVNHKPSNTKVDKKVEPKSCDKTHTCPPCPAPEDLNGPSVFLFPPKPKDTLMISRTPEVTCVVVDVEHEDPEVKFNWYVDGVEVHNAKTKPREEQYNSTYRVVSVLTVLHQDWLNGKEYKCKVSNKALPAPIEKTISKAKGQPREPQVYTLPPSREEMTKNQVSLTCLVKGFYPSDIAVEWESNGQPENNYKTTPPVLDSDGSFFLYSKLTVDKSRWQQGNVFSCSVMHEALHNHYTQKSLSLSPGK light: DIVMTQSPATLSLSPGERATLSCRSSKSLQNVNGNTYLYWFQQKPGQSPQLLIYRMSNLNSGVPDRFSGSGSGTEFTLTISSLEPEDFAVYYCMQHLEYPITFGAGTKLEIKRTVAAPSVFIFPPSDEQLKSGTASVVCLLNNFYPREAKVQWKVDNALQSGNSQESVTEQDSKDSTYSLSSTLTLSKADYEKHKVYACEVTHQGLSSPVTKSFNRGEC
no binding | no binding | 0.0797 fold | 18400 nM |  |  | G236S/G237A (antibody, human IgG1, kappa, HuAM4G7 anti-CD19 IgG1 (m1) with these Fc substitutions, EU index; copies: 2 + 2) heavy: not shown light: DIVMTQSPATLSLSPGERATLSCRSSKSLQNVNGNTYLYWFQQKPGQSPQLLIYRMSNLNSGVPDRFSGSGSGTEFTLTISSLEPEDFAVYYCMQHLEYPITFGAGTKLEIKRTVAAPSVFIFPPSDEQLKSGTASVVCLLNNFYPREAKVQWKVDNALQSGNSQESVTEQDSKDSTYSLSSTLTLSKADYEKHKVYACEVTHQGLSSPVTKSFNRGEC
